According to article doi:10.1101/2022.03.31.486303 (bioRxiv, 2022):

What was measured:
[1] = target: Cse4-NCP (Cse4 containing nucleosome core particle) (budding yeast) (UniProt P36012); assay: cross-linking
Spc24/25 complex = Spc24/25 complex (budding yeast, UniProt Q04477;P40014); assay: cross-linking
[2] = target: Mif2* (Mif2-6xHis-6xFlag wild type, dephosphorylated and in vitro phosphorylated by Cdc5) (budding yeast, UniProt P35201 1-549); assay: pull-down
Ame1/Okp1 complex = Ame1/Okp1 complex (budding yeast, UniProt P38313;P53298); assay: pull-down
Dsn1/Nsl1 = target: T1, Dsn1/Nsl1 (budding yeast, UniProt P40568;Q12143); assay: SEC
T1 sequence 1: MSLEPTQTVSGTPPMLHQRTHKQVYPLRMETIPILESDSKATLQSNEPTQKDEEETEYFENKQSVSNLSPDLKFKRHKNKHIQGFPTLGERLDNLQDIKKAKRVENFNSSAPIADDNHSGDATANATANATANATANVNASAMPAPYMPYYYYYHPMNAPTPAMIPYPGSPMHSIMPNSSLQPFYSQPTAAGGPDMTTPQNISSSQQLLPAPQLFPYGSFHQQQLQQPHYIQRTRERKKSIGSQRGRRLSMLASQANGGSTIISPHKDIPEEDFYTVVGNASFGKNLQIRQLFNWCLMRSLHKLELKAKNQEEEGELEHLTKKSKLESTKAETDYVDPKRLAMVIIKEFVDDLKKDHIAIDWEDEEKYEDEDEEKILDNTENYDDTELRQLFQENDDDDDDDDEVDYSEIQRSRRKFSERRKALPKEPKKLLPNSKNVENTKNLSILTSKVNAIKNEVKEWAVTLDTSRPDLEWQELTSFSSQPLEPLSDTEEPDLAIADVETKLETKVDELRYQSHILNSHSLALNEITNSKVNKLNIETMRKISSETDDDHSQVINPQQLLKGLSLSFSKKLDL
T1 sequence 2: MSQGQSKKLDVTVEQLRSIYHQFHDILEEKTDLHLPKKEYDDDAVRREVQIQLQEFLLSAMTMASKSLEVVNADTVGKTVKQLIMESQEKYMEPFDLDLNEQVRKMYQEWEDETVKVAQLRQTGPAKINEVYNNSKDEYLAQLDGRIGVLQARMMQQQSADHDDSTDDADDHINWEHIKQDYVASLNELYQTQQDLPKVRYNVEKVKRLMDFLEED

Ame1/Okp1 complex, sequence (P38313 whole entry, chain 1 of 2): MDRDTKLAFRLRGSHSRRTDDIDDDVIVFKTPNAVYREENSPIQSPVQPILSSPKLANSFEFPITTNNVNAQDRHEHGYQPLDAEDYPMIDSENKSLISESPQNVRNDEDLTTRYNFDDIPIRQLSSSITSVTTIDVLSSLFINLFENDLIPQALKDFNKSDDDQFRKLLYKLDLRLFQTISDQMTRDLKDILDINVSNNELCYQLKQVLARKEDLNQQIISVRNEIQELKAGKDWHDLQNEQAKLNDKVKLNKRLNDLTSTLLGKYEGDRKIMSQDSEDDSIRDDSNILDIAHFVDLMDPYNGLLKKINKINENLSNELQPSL
Ame1/Okp1 complex, sequence (P53298 whole entry, chain 2 of 2): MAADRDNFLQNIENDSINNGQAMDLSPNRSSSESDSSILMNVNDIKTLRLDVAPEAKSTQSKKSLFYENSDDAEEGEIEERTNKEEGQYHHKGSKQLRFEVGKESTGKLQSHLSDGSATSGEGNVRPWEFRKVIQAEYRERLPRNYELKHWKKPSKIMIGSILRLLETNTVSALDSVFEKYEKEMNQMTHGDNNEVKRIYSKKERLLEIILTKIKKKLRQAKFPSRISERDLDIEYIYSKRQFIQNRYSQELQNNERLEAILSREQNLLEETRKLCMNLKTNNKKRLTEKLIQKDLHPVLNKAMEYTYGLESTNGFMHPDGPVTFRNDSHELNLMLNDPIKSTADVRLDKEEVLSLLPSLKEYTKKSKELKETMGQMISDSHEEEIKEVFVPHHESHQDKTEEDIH
Spc24/25 complex, sequence (Q04477 whole entry, chain 1 of 2): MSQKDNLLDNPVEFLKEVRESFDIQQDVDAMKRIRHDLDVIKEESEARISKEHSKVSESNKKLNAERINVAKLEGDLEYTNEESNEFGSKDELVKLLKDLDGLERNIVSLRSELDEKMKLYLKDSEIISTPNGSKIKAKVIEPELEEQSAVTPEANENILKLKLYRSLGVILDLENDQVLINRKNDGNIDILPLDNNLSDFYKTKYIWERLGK
Spc24/25 complex, sequence (P40014 whole entry, chain 2 of 2): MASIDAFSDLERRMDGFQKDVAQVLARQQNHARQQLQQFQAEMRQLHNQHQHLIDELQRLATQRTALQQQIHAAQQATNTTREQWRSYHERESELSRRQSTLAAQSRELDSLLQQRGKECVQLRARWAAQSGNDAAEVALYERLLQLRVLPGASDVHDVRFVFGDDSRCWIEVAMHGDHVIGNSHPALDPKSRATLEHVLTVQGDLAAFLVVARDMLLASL

With “Mif2* (Mif2-6xHis-6xFlag wild type, dephosphorylated and in vitro phosphorylated by Cdc5) (from UniProt P35201 1-549) (natural protein)” the fold decrease of KD with MTW1c(Dsn1^S240D,S250D) against wild-type MTW1c [1] was 20 fold.

B1: Cnn1^60-84 peptide (peptide)
peptide: NKDPNEVRSFLQDLSQVLARKSQGN
In the case of B1, the Kd (Spc24/25 complex) is reported as 2600 nM.

B2: Mtw1/Nnf1 (complex)
chain 1: MSAPTMRSTSILTEHLGYPPISLVDDIINAVNEIMYKCTAAMEKYLLSKSKIGEEDYGEEIKSGVAKLESLLENSVDKNFDKLELYVLRNVLRIPEEYLDANVFRLENQKDLVIVDENELKKSEEKLREKVNDVELAFKKNEMLLKRVTKVKRLLFTIRGFKQKLNELLKCKDDVQLQKILESLKPIDDTMTLLTDSLRKLYVDSESTSSTEEVEALLQRLKTNGKQNNKDFRTRYIDIRTNNVLRKLGLLGDKEDEKQSAKPDARTQAGDIVSIDIEEPQLDLLDDVL
chain 2: MVNSHGIRYIRLKQVFNRALDQSISKLQSWDKVSSCFPQYVNSKQGAINVANCQRQLTEFWTELCQREFKEIMEERNVEQKLNELDELILEAKERYTDRDQDEVNKGPAIDELSSKELVECHLYSQRMHAIHEIDERLAKVNEMNDQLAQELKDLETQVEVEKNEIGKMYDEYLGSHTDQPANVLLVQSLNDMVLELKENY
B2: binds [2]; binds (Ame1/Okp1 complex); binds (Dsn1/Nsl1).

B3: Mif2^Δ200-230 mutant, in vitro phosphorylated by Cdc5 (natural protein)
chain: MDYMKLGLKSRKTGIDVKQDIPKDEYSMENIDDFFKDDETSLISMRRKSRRKSSLFLPSTLNGDTKNVLPPFLQSYKSQDDEVVQSPSGKGDGSRRSSLLSHQSNFLSPANDFEPIEEEPEQEENDIRGNDFATPITQKLSKPTYKRKYSTRYSLDTSESPSVRLTPDRITNKNVYSDVPDLVADEDDDDRVNTSLNTSDSGSDSASDSDGDNTYQEVEEEAEVNTNDNEDDYIRRQASDVVRTDSIIDRNGLRKSTRVKVAPLQYWRNEKIVYKRKSNKPVLDIDKIVTYDESEDEEEILAAQRRKKQKKKPTPTRPYNYVPTGRPRGRPKKDPNAKENLIPEDPNEDIIERIESGGIENGEWLKHGILEANVKISDTKEETKDEIIAFAPNLSQTEQVKDTKDENFALEIMFDKHKEYFASGILKLPAISGQKKLSNSFRTYITFHVIQGIVEVTVCKNKFLSVKGSTFQIPAFNEYAIANRGNDEAKMFFVQVTVSEDANDDNDKELDSTFDTFG
B3: binds (Ame1/Okp1 complex).
